# Data taken from the Human Domainome abundance scans (Beltran et al. 2025).
# ± gives the uncertainty stated by the source.
# B1: Steroid hormone receptor ERR2, residues 100 to 176; numbered along this chain, O95718 (parent)
# chain: KRLCLVCGDIASGYHYGVASCEACKAFFKRTIQGNIEYSCPATNECEITKRRRKSCQACRFMKCLKVGMLKEGVRLD
# Variants of: B1
# Test: abundance fitness (aPCA) (normalised: wild type 0, dead -1); higher = more abundant; growth selection in yeast, the domain comes from the species named
# Details: Homo sapiens
row,Variant,abundance fitness
1,KRLCLVVGDIASGYHYGVASCEACKAFFKRTIQGNIEYSCPATNECEITKRRRKSCQACRFMKCLKVGMLKEGVRLD,-0.976 ± 0.12
2,KRLCLVRGDIASGYHYGVASCEACKAFFKRTIQGNIEYSCPATNECEITKRRRKSCQACRFMKCLKVGMLKEGVRLD,-0.586 ± 0.069
3,KRLCLVPGDIASGYHYGVASCEACKAFFKRTIQGNIEYSCPATNECEITKRRRKSCQACRFMKCLKVGMLKEGVRLD,-0.673 ± 0.14
4,KRLCLVSGDIASGYHYGVASCEACKAFFKRTIQGNIEYSCPATNECEITKRRRKSCQACRFMKCLKVGMLKEGVRLD,-0.726 ± 0.097
5,KRLCLVYGDIASGYHYGVASCEACKAFFKRTIQGNIEYSCPATNECEITKRRRKSCQACRFMKCLKVGMLKEGVRLD,-0.993 ± 0.32
6,KRLCLVQGDIASGYHYGVASCEACKAFFKRTIQGNIEYSCPATNECEITKRRRKSCQACRFMKCLKVGMLKEGVRLD,-0.918 ± 0.16
7,KRLCLVWGDIASGYHYGVASCEACKAFFKRTIQGNIEYSCPATNECEITKRRRKSCQACRFMKCLKVGMLKEGVRLD,-1.22 ± 0.28
8,KRLCLVCGDINSGYHYGVASCEACKAFFKRTIQGNIEYSCPATNECEITKRRRKSCQACRFMKCLKVGMLKEGVRLD,-0.153 ± 0.099
9,KRLCLVCGDIGSGYHYGVASCEACKAFFKRTIQGNIEYSCPATNECEITKRRRKSCQACRFMKCLKVGMLKEGVRLD,-0.013 ± 0.043
10,KRLCLVCGDIDSGYHYGVASCEACKAFFKRTIQGNIEYSCPATNECEITKRRRKSCQACRFMKCLKVGMLKEGVRLD,-0.241 ± 0.1
11,KRLCLVCGDIFSGYHYGVASCEACKAFFKRTIQGNIEYSCPATNECEITKRRRKSCQACRFMKCLKVGMLKEGVRLD,-0.213 ± 0.1
12,KRLCLVCGDILSGYHYGVASCEACKAFFKRTIQGNIEYSCPATNECEITKRRRKSCQACRFMKCLKVGMLKEGVRLD,-0.311 ± 0.063
13,KRLCLVCGDISSGYHYGVASCEACKAFFKRTIQGNIEYSCPATNECEITKRRRKSCQACRFMKCLKVGMLKEGVRLD,0.067 ± 0.051
14,KRLCLVCGDIPSGYHYGVASCEACKAFFKRTIQGNIEYSCPATNECEITKRRRKSCQACRFMKCLKVGMLKEGVRLD,-0.542 ± 0.14
15,KRLCLVCGDIHSGYHYGVASCEACKAFFKRTIQGNIEYSCPATNECEITKRRRKSCQACRFMKCLKVGMLKEGVRLD,-0.691 ± 0.21
16,KRLCLVCGDICSGYHYGVASCEACKAFFKRTIQGNIEYSCPATNECEITKRRRKSCQACRFMKCLKVGMLKEGVRLD,-0.177 ± 0.092
17,KRLCLVCGDIISGYHYGVASCEACKAFFKRTIQGNIEYSCPATNECEITKRRRKSCQACRFMKCLKVGMLKEGVRLD,-0.377 ± 0.14
18,KRLCLVCGDIKSGYHYGVASCEACKAFFKRTIQGNIEYSCPATNECEITKRRRKSCQACRFMKCLKVGMLKEGVRLD,-0.424 ± 0.077
19,KRLCLVCGDIQSGYHYGVASCEACKAFFKRTIQGNIEYSCPATNECEITKRRRKSCQACRFMKCLKVGMLKEGVRLD,-0.217 ± 0.078
20,KRLCLVCGDIRSGYHYGVASCEACKAFFKRTIQGNIEYSCPATNECEITKRRRKSCQACRFMKCLKVGMLKEGVRLD,-0.516 ± 0.067
21,KRLCLVCGDIESGYHYGVASCEACKAFFKRTIQGNIEYSCPATNECEITKRRRKSCQACRFMKCLKVGMLKEGVRLD,-0.11 ± 0.063
22,KRLCLVCGDIMSGYHYGVASCEACKAFFKRTIQGNIEYSCPATNECEITKRRRKSCQACRFMKCLKVGMLKEGVRLD,-0.103 ± 0.064
23,KRLCLVCGDSASGYHYGVASCEACKAFFKRTIQGNIEYSCPATNECEITKRRRKSCQACRFMKCLKVGMLKEGVRLD,-0.033 ± 0.055
24,KRLCLVCGDPASGYHYGVASCEACKAFFKRTIQGNIEYSCPATNECEITKRRRKSCQACRFMKCLKVGMLKEGVRLD,0.065 ± 0.072

row,Variant,abundance fitness
1,KRLCLVCGDMASGYHYGVASCEACKAFFKRTIQGNIEYSCPATNECEITKRRRKSCQACRFMKCLKVGMLKEGVRLD,-0.065 ± 0.054
2,KRLCLVCGDKASGYHYGVASCEACKAFFKRTIQGNIEYSCPATNECEITKRRRKSCQACRFMKCLKVGMLKEGVRLD,0.037 ± 0.06
3,KRLCLVCGDRASGYHYGVASCEACKAFFKRTIQGNIEYSCPATNECEITKRRRKSCQACRFMKCLKVGMLKEGVRLD,-0.046 ± 0.044
4,KRLCLVCGDHASGYHYGVASCEACKAFFKRTIQGNIEYSCPATNECEITKRRRKSCQACRFMKCLKVGMLKEGVRLD,-0.011 ± 0.084
5,KRLCLVCGDNASGYHYGVASCEACKAFFKRTIQGNIEYSCPATNECEITKRRRKSCQACRFMKCLKVGMLKEGVRLD,-0.393 ± 0.11
6,KRLCLVCGDTASGYHYGVASCEACKAFFKRTIQGNIEYSCPATNECEITKRRRKSCQACRFMKCLKVGMLKEGVRLD,0.02 ± 0.062
7,KRLCLVCGDAASGYHYGVASCEACKAFFKRTIQGNIEYSCPATNECEITKRRRKSCQACRFMKCLKVGMLKEGVRLD,0.275 ± 0.046
8,KRLCLVCGDWASGYHYGVASCEACKAFFKRTIQGNIEYSCPATNECEITKRRRKSCQACRFMKCLKVGMLKEGVRLD,0.074 ± 0.06
9,KRLCLVCGDYASGYHYGVASCEACKAFFKRTIQGNIEYSCPATNECEITKRRRKSCQACRFMKCLKVGMLKEGVRLD,-0.029 ± 0.084
10,KRLCLVCGDEASGYHYGVASCEACKAFFKRTIQGNIEYSCPATNECEITKRRRKSCQACRFMKCLKVGMLKEGVRLD,0.045 ± 0.051
11,KRLCLVCGDFASGYHYGVASCEACKAFFKRTIQGNIEYSCPATNECEITKRRRKSCQACRFMKCLKVGMLKEGVRLD,0.056 ± 0.091
12,KRLCLVCGDVASGYHYGVASCEACKAFFKRTIQGNIEYSCPATNECEITKRRRKSCQACRFMKCLKVGMLKEGVRLD,0.242 ± 0.041
13,KRLCLVCGDCASGYHYGVASCEACKAFFKRTIQGNIEYSCPATNECEITKRRRKSCQACRFMKCLKVGMLKEGVRLD,-0.058 ± 0.077
14,KRLCLVCGDLASGYHYGVASCEACKAFFKRTIQGNIEYSCPATNECEITKRRRKSCQACRFMKCLKVGMLKEGVRLD,-0.139 ± 0.056
15,KRLCLVCGDDASGYHYGVASCEACKAFFKRTIQGNIEYSCPATNECEITKRRRKSCQACRFMKCLKVGMLKEGVRLD,0.195 ± 0.067
16,KRLCLVCEDIASGYHYGVASCEACKAFFKRTIQGNIEYSCPATNECEITKRRRKSCQACRFMKCLKVGMLKEGVRLD,0.006 ± 0.06
17,KRLCLVCTDIASGYHYGVASCEACKAFFKRTIQGNIEYSCPATNECEITKRRRKSCQACRFMKCLKVGMLKEGVRLD,-0.077 ± 0.061
18,KRLCLVCVDIASGYHYGVASCEACKAFFKRTIQGNIEYSCPATNECEITKRRRKSCQACRFMKCLKVGMLKEGVRLD,-1.11 ± 0.17
19,KRLCLVCFDIASGYHYGVASCEACKAFFKRTIQGNIEYSCPATNECEITKRRRKSCQACRFMKCLKVGMLKEGVRLD,-0.274 ± 0.15
20,KRLCLVCSDIASGYHYGVASCEACKAFFKRTIQGNIEYSCPATNECEITKRRRKSCQACRFMKCLKVGMLKEGVRLD,-0.117 ± 0.052
21,KRLCLVCLDIASGYHYGVASCEACKAFFKRTIQGNIEYSCPATNECEITKRRRKSCQACRFMKCLKVGMLKEGVRLD,-0.091 ± 0.046
22,KRLCLVCQDIASGYHYGVASCEACKAFFKRTIQGNIEYSCPATNECEITKRRRKSCQACRFMKCLKVGMLKEGVRLD,0.086 ± 0.058
23,KRLCLVCMDIASGYHYGVASCEACKAFFKRTIQGNIEYSCPATNECEITKRRRKSCQACRFMKCLKVGMLKEGVRLD,-0.201 ± 0.071
24,KRLCLVCPDIASGYHYGVASCEACKAFFKRTIQGNIEYSCPATNECEITKRRRKSCQACRFMKCLKVGMLKEGVRLD,-0.725 ± 0.16

row,Variant,abundance fitness
1,KRLCLVCWDIASGYHYGVASCEACKAFFKRTIQGNIEYSCPATNECEITKRRRKSCQACRFMKCLKVGMLKEGVRLD,-0.374 ± 0.071
2,KRLCLVCYDIASGYHYGVASCEACKAFFKRTIQGNIEYSCPATNECEITKRRRKSCQACRFMKCLKVGMLKEGVRLD,-0.132 ± 0.12
3,KRLCLVCDDIASGYHYGVASCEACKAFFKRTIQGNIEYSCPATNECEITKRRRKSCQACRFMKCLKVGMLKEGVRLD,-0.096 ± 0.092
4,KRLCLVCHDIASGYHYGVASCEACKAFFKRTIQGNIEYSCPATNECEITKRRRKSCQACRFMKCLKVGMLKEGVRLD,-0.102 ± 0.1
5,KRLCLVCIDIASGYHYGVASCEACKAFFKRTIQGNIEYSCPATNECEITKRRRKSCQACRFMKCLKVGMLKEGVRLD,-0.636 ± 0.3
6,KRLCLVCADIASGYHYGVASCEACKAFFKRTIQGNIEYSCPATNECEITKRRRKSCQACRFMKCLKVGMLKEGVRLD,-0.101 ± 0.055
7,KRLCLVCNDIASGYHYGVASCEACKAFFKRTIQGNIEYSCPATNECEITKRRRKSCQACRFMKCLKVGMLKEGVRLD,-0.758 ± 0.18
8,KRLCLVCCDIASGYHYGVASCEACKAFFKRTIQGNIEYSCPATNECEITKRRRKSCQACRFMKCLKVGMLKEGVRLD,-0.381 ± 0.1
9,KRLCLVCGGIASGYHYGVASCEACKAFFKRTIQGNIEYSCPATNECEITKRRRKSCQACRFMKCLKVGMLKEGVRLD,-0.208 ± 0.045
10,KRLCLVCGNIASGYHYGVASCEACKAFFKRTIQGNIEYSCPATNECEITKRRRKSCQACRFMKCLKVGMLKEGVRLD,-0.365 ± 0.14
11,KRLCLVCGPIASGYHYGVASCEACKAFFKRTIQGNIEYSCPATNECEITKRRRKSCQACRFMKCLKVGMLKEGVRLD,-0.894 ± 0.25
12,KRLCLVCGVIASGYHYGVASCEACKAFFKRTIQGNIEYSCPATNECEITKRRRKSCQACRFMKCLKVGMLKEGVRLD,-0.43 ± 0.063
13,KRLCLVCGSIASGYHYGVASCEACKAFFKRTIQGNIEYSCPATNECEITKRRRKSCQACRFMKCLKVGMLKEGVRLD,-0.36 ± 0.069
14,KRLCLVCGWIASGYHYGVASCEACKAFFKRTIQGNIEYSCPATNECEITKRRRKSCQACRFMKCLKVGMLKEGVRLD,-0.301 ± 0.072
15,KRLCLVCGYIASGYHYGVASCEACKAFFKRTIQGNIEYSCPATNECEITKRRRKSCQACRFMKCLKVGMLKEGVRLD,-0.351 ± 0.11
16,KRLCLVCGCIASGYHYGVASCEACKAFFKRTIQGNIEYSCPATNECEITKRRRKSCQACRFMKCLKVGMLKEGVRLD,-0.829 ± 0.22
17,KRLCLVCGMIASGYHYGVASCEACKAFFKRTIQGNIEYSCPATNECEITKRRRKSCQACRFMKCLKVGMLKEGVRLD,-0.216 ± 0.074
18,KRLCLVCGRIASGYHYGVASCEACKAFFKRTIQGNIEYSCPATNECEITKRRRKSCQACRFMKCLKVGMLKEGVRLD,-0.508 ± 0.066
19,KRLCLVCGLIASGYHYGVASCEACKAFFKRTIQGNIEYSCPATNECEITKRRRKSCQACRFMKCLKVGMLKEGVRLD,-0.454 ± 0.067
20,KRLCLVCGFIASGYHYGVASCEACKAFFKRTIQGNIEYSCPATNECEITKRRRKSCQACRFMKCLKVGMLKEGVRLD,-0.492 ± 0.14
21,KRLCLVCGIIASGYHYGVASCEACKAFFKRTIQGNIEYSCPATNECEITKRRRKSCQACRFMKCLKVGMLKEGVRLD,-0.369 ± 0.15
22,KRLCLVCGHIASGYHYGVASCEACKAFFKRTIQGNIEYSCPATNECEITKRRRKSCQACRFMKCLKVGMLKEGVRLD,-0.365 ± 0.19
23,KRLCLVCGQIASGYHYGVASCEACKAFFKRTIQGNIEYSCPATNECEITKRRRKSCQACRFMKCLKVGMLKEGVRLD,-0.143 ± 0.078
